Experimental data published in publication PMC5896254.
Residue numbers refer to the chain shown, from its start. Numbers in names are those of the source.

Assays:
[1] = target: RAB11A (endogenous, HeLa) (UniProt P62491); experiment: GFP-TRAP pull-down, quantified immunoblot; details: HeLa cells starved for 2 hr; n = 5; parent: est. 1.0; read off a plot
WIPI2 (endogenous, HeLa) = experiment: GFP-TRAP pull-down, quantified immunoblot; details: HeLa cells starved for 1 hr; n = 3; parent: est. 0.10; read off a plot
[2] = target: T1, recombinant human HIS-RAB11A, P62491; experiment: liposome sedimentation assay; details: chain shown with the change; in vitro; RAB11A-containing liposomes; n = 4; parent: est. 100; read off a plot
T1 chain: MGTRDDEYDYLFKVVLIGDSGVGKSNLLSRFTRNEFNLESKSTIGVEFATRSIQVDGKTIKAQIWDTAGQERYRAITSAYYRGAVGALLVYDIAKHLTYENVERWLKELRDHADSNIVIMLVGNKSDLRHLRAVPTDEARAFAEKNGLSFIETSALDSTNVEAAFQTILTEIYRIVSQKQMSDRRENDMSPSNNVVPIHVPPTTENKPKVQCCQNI

GFP-WIPI2 L115A; E116T
response [1]: 0.42 au

GFP-WIPI2 Y120F; I121E
response [1]: 0.1 au

GFP-RAB11A (from UniProt P62491) Q70L
response (WIPI2 (endogenous, HeLa)): 0.15 au

GFP-RAB11A (from UniProt P62491) S25N
response (WIPI2 (endogenous, HeLa)): 0.045 au

B1: WIPI2-FLAG WT R224T; R225T (protein)
chain: MNLASQSGEAGAGQLLFANFNQDNTSLAVGSKSGYKFFSLSSVDKLEQIYECTDTEDVCIVERLFSSSLVAIVSLKAPRKLKVCHFKKGTEICNYSYSNTILAVKLNRQRLIVCLEESLYIHNIRDMKVLHTIRETPPNPAGLCALSINNDNCYLAYPGSATIGEVQVFDTINLRAANMIPAHDSPLAALAFDASGTKLATASEKGTVIRVFSIPEGQKLFEFTTGVKRCVSICSLAFSMDGMFLSASSNTETVHIFKLETVKEKPPEEPTTWTGYFGKVLMASTSYLPSQVTEMFNQGRAFATVRLPFCGHKNICSLATIQKIPRLLVGAADGYLYMYNLDPQEGGECALMKQHRLDGSLETTNEILDSASHDCPLVTQTYGAAAGKGTYVPSSPTRLAYTDDLGAVGGACLEDEASALRLDEDSEHPPMILRTD
percent of parent [2]: 92 % WT

B2: WIPI2-FLAG WT Y120F; I121E (protein)
chain: B1 chain with Y120F, I121E, T224R, T225R
percent of parent [2]: 38 % WT

B3: WIPI2-FLAG WT L115A; E116T (protein)
chain: B1 chain with L115A, E116T, T224R, T225R
percent of parent [2]: 43 % WT
